# Laboratory results as given in US11207340B2, “Tumor suppressor TET1 and uses thereof” (The Chinese University of Hong Kong, priority 2017, dated 2021).
# “Also recorded” adds a separate entry of the source.
# B1: TET1-CD: Human TET1 catalytic domain (Cys-rich and DSBH regions), N-terminal Flag tag, expressed from pcDNA3.1 plasmid; SEQ ID NO:6 (protein, listed as Homo sapiens)
# chain: ELPTCSCLDRVIQKDKGPYYTHLGAGPSVAAVREIMENRYGQKGNAIRIEIVVYTGKEGKSSHGCPIAKWVLRRSSDEEKVLCLVRQRTGHHCPTAVMVVLIMVWDGIPLPMADRLYTELTENLKSYNGHPTDRRCTLNENRTCTCQGIDPETCGASFSFGCSWSMYFNGCKFGRSPSPRRFRIDPSSPLHEKNLEDNLQSLATRLAPIYKQYAPVAYQNQVEYENVARECRLGSKEGRPFSGVTACLDFCAHPHRDIHNMNNGSTVVCTLTREDNRSLGVIPQDEQLHVLPLYKLSDTDEFGSKEGMEAKIKSGAIEVLAPRRKKRTCFTQPVPRSGKKRAAMMTEVLAHKIRAVEKKPIPRIKRKNNSTTTNNSKPSSLPTLGSNTETVQPEVKSETEPHFILKSSDNTKTYSLMPSAPHPVKEASPGFSWSPKTASATPAPLKNDATASCGFSERSSTPHCTMPSGRLSGANAAAADGPGISQLGEVAPLPTLSAPVMEPLINSEPSTGVTEPLTPHQPNHQPSFLTSPQDLASSPMEEDEQHSEADEPPSDEPLSDDPLSPAEEKLPHIDEYWSDSEHIFLDANIGGVAIAPAHGSVLIECARRELHATTPVEHPNRNHPTRLSLVFYQHKNLNKPQHGFELNKIKFEAKEAKNKKMKASEQKDQAANEGPEQSSEVNELNQIPSHKALTLTHDNVVTVSPYALTHVAGPYNHWV
# modifications: N-terminal Flag tag
# Key:
# Assay type in all cases: cell-based, human
# TET1 promoter = test: Demethylation treatment of silenced tumor cell lines: TET1 promoter methylation by MSP and BGS; conditions: for TET1 promoter demethylation (unmethylated promoter alleles) by MSP: 10 μmol/L Aza 3 days, without or with TSA ~16 h, silenced tumor cell lines
# Text: Human tumor cell lines of multiple tissue types were used^50-55, including nasopharyngeal (NPC), esophageal squamous cell (ESCC), lung, gastric, colorectal (CRC), hepatocellular (HCC), breast, cervical, renal (RCC), bladder and prostate carcinomas, melanoma, as well as non-Hodgkin (NHL), Hodgkin (HL) and nasal natural killer (NK)/T-cell (NKTCL) lymphomas. Immortalized, non-transformed normal epithelial cell lines were used as “normal” controls. Cell lines were obtained from either American Type Culture Collection or collaborators. When needed, cell lines were treated with 10 μmol/L 5-aza-2′-deoxycytidine (Aza) (Sigma-aldrich, St Louis, Mo.) for 3 days, without or with further treatment with 100 nmol/trichostatin A (TSA) (Cayman Chemical Co., Ann Arbor, Mich.) for additional ˜16 h as previously^50,53. Normal adult and fetal tissue RNA and DNA samples were purchased commercially (Stratagene, La Jolla, Calif.; Millipore-Chemicon, Billerica, Mass.). DNA samples of primary carcinomas, nose swab from suspected NPC patients, as well as surgical margin normal tissues, have been described previously^31,51,52.
# (§1) CpG island (CGI) analysis for TET1 promoter and exon 1 was performed using CpG island Searcher (http//ccnt.hsc.usc.edu/cpgislands2). Bisulfite modification of genomic DNA was carried out as described previously^56,57. For MSP analysis, approximately 50 ng of bisulfited DNA for each sample was amplified with methylation- or unmethylation-specific primer set, according to previously reported MSP protocol^58. Bisulfite-treated DNA was also amplified using a set of BGS primers, then cloned into pCR4-TOPO vector (Invitrogen, Carlsbad, Calif.), with 8-10 clones randomly picked and sequenced.
# TET1 = test: Demethylation treatment of silenced tumor cell lines: TET1 expression by semi-quantitative RT-PCR; conditions: 10 μmol/L Aza 3 days, alone or combined with HDAC inhibitor; nasopharyngeal, esophageal, colon, breast and renal tumor cell lines with methylated TET1
# Text: Human tumor cell lines of multiple tissue types were used^50-55, including nasopharyngeal (NPC), esophageal squamous cell (ESCC), lung, gastric, colorectal (CRC), hepatocellular (HCC), breast, cervical, renal (RCC), bladder and prostate carcinomas, melanoma, as well as non-Hodgkin (NHL), Hodgkin (HL) and nasal natural killer (NK)/T-cell (NKTCL) lymphomas. Immortalized, non-transformed normal epithelial cell lines were used as “normal” controls. Cell lines were obtained from either American Type Culture Collection or collaborators. When needed, cell lines were treated with 10 μmol/L 5-aza-2′-deoxycytidine (Aza) (Sigma-aldrich, St Louis, Mo.) for 3 days, without or with further treatment with 100 nmol/trichostatin A (TSA) (Cayman Chemical Co., Ann Arbor, Mich.) for additional ˜16 h as previously^50,53. Normal adult and fetal tissue RNA and DNA samples were purchased commercially (Stratagene, La Jolla, Calif.; Millipore-Chemicon, Billerica, Mass.). […]
# (§2) Semi-quantitative RT-PCR and quantitative real-time PCR were performed as described before^50,53, with GAPDH as a control for all the samples shown in previous publications^31,51,52. qRT-PCR was carried out according to the manufacturer's protocol (HT7900 system; applied Biosystems), with SYBR Green master mix (applied Biosystems) used.
# [1] = system: HOXA9, HOXA5, PCDH7, TCF4, MEIS1, SLIT2 and ZNF382; test: TSG expression by semi-quantitative RT-PCR and qRT-PCR in TET1-CD-expressing carcinoma cells
# Description: as §2
# (§3) Human TET1 catalytic domain (TET1-CD) cDNA and its catalytic domain mutant (TET1-CD-mut) clones (Addgene, Cambridge, Mass.) were used as templates to generate TET1 constructs with an N-terminal Flag tag, and subcloned into pcDNA3.1 vector (Invitrogen, Carlsbad, Calif.). Cells were cultured overnight in a 12-well plate and transfected with empty vector or TET1-CD, TET1-CD-mut-expressing plasmids using Lipofectamine 2000 (Invitrogen, Carlsbad, Calif.). Forty-eight hours later, transfectants were replated in triplicate and cultured for 10-15 days in complete medium containing G418. Surviving colonies were stained with crystal violet (0.5% w/v) after methanol fixation, with visible colonies (≥50 cells) counted.
# NPC tumor cells (HONE1) = test: TUNEL assay; conditions: compared with vector or TET1-CD-mut controls
# Description: Cells cultured on coverslips were fixed with 4% paraformaldehyde, and permeabilized with 0.1% triton X-100. TUNEL (Terminal deoxynucleotidyl transferase dUTP nick end labeling) staining was performed using the In Situ Cell Death Detection Kit (Roche, Mannheim, Germany).
# [2] = system: HOXA9, SLIT2 and ZNF382 promoters; test: TSG promoter methylation by MSP in TET1-CD-expressing tumor cells
# Description: as §1, §3
# [3] = system: NPC, ESCC, gastric, colon and breast tumor cells; test: Colony formation assay of tumor cells; conditions: ectopic expression
# Description: as §3
Molecule,TET1 promoter demethylation (unmethylated promoter alleles) by MSP (TET1 promoter),TET1 promoter demethylation (unmethylated promoter alleles) by MSP (TET1 promoter; listed as Aza),"TET1 promoter CpG sites by BGS analysis (TET1 promoter; after Aza treatment, alone or combined with HDAC inhibitor)",TET1 expression after treatment (TET1),"TSG expression at mRNA levels (HOXA9, HOXA5, PCDH7, TCF4, MEIS1, SLIT2, ZNF382) [1]",numbers of apoptotic cells (NPC tumor cells (HONE1)),"methylated alleles of HOXA9, SLIT2 and ZNF382 promoters [2]","unmethylated promoter alleles of HOXA9, SLIT2 and ZNF382 [2]","tumor cell clonogenicity, % of control cells ([3]; NPC, ESCC, gastric, colon and breast tumor cells, vs control cells)",suppression of tumor cell clonogenicity / growth ([3]; colony formation assays of tumor cells of multiple tissue types)
"Nc1ncn([C@H]2C[C@H](O)[C@@H](CO)O2)c(=O)n1 [5-aza-dC, 5-aza-2′-deoxycytidine]",increased,demethylated,dramatically demethylated,restoration,,,,,,
B1,,,,,Mild upregulation; also recorded: upregulated,significantly increased; also recorded: induced,decreased,increased,40-50%,inhibited
